Measurements published in the supplement of paper PMC9732359.
± gives the uncertainty stated by the source.

Assay: protein stability index of a GFP-peptide fusion (yeast GPS) (PSI 1-4); higher = more stable; sorted into four equal gates, so the index is relative within each strain
Procedure, shortened: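 Plasmids isolated from each sorting gate were PCR-amplified and Illumina-sequenced, and barcodes assigned the reads to strains. The gates, four of equal size, were set by GFP/Cherry fluorescence ratio on mid-log cultures in leucine-free medium. These cultures were yeast carrying a pooled library of tiled 17-residue yeast protein peptides fused downstream of GFP on a plasmid that also expresses Cherry. The protein stability index is the sum of every gate's read frequency times its gate number.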

Sequence | protein stability index (doa10∆) | protein stability index (pdr5∆) | protein stability index (san1∆) | protein stability index (ubr1∆)
ATLGIDPPKGILLYGPP [RPT1] | 2.97 ± 0.078 | 2.96 ± 0.077 | 2.95 ± 0.13 | 2.98 ± 0.047
RILKLGTQLATLKNRGL [YGR119C/NUP57] | 2.29 ± 0.078 | 2.57 ± 0.068 | 2.65 ± 0.081 | 2.84 ± 0.046
TKTPGPGGQAALRALAR [RPS14A] | 2.64 ± 0.042 | 2.27 ± 0.031 | 2.39 ± 0.042 | 2.3 ± 0.029
DELDQEILNLSTQELQT [RPT5] | 3.21 ± 0.084 | 3.15 ± 0.09 | 3.14 ± 0.06 | 3.13 ± 0.078
EFVSYYYAHSIPSSKID [SNU114] | 2.01 ± 0.045 | 1.9 ± 0.052 | 2.07 ± 0.063 | 1.62 ± 0.039
RGAHVEKTMVKKNLGRL [PRP8] | – | 3.29 ± 0.16 | 3.14 ± 0.18 | –
SIVLDSEHFDVNDNPDI [DIS3] | 2.96 ± 0.053 | 3.11 ± 0.053 | 2.74 ± 0.093 | 3.1 ± 0.046
TKYSAKYAQDGAGIERE [RPL3] | 3.04 ± 0.15 | 3.48 ± 0.22 | 3.24 ± 0.27 | 3.19 ± 0.15
ALTVQEVLNRVASRHPS [YDL116W/NUP84] | 3.1 ± 0.086 | 3.15 ± 0.073 | 3.12 ± 0.043 | 3.3 ± 0.047
QVRRDIPSAAFNFFEPI [YMR129W/POM152] | 1.9 ± 0.036 | 2.23 ± 0.041 | 1.96 ± 0.049 | 2.15 ± 0.031
TILQHLSEAWRCWKANI [PRP8] | 3.33 ± 0.081 | 3.36 ± 0.083 | 3.5 ± 0.047 | 3.32 ± 0.068
ERYFDCCTKFFTMMTSE [PCI8] | 2.38 ± 0.059 | 2.44 ± 0.071 | 2.35 ± 0.07 | 2.29 ± 0.045
SDELHNQSTIYEDEELS [LIN1] | 3 ± 0.079 | 2.87 ± 0.098 | 3.11 ± 0.07 | 2.97 ± 0.077
EPILGQITLTFISELCS [YML103C/NUP188] | 2.6 ± 0.06 | 2.32 ± 0.062 | 3.1 ± 0.055 | 3.02 ± 0.044
DLQYLGEFSGKNFSPTK [RRP6] | 3.46 ± 0.063 | 3.25 ± 0.083 | 3.19 ± 0.04 | 3.24 ± 0.038
DSLKLNSKPVELKPVSL [YJL041W/NSP1] | 2.9 ± 0.082 | 2.79 ± 0.07 | 2.49 ± 0.097 | 2.63 ± 0.1
LLVNPDIDLETYSFIDN [YML103C/NUP188] | 2.79 ± 0.059 | 2.6 ± 0.048 | 2.66 ± 0.056 | 2.6 ± 0.038
SNNSTTNTFGSNSAGTS [YJL041W/NSP1] | 3.08 ± 0.18 | 3.2 ± 0.14 | – | 3.05 ± 0.18
KAEIPPEYAKVGDFLLQ [SIN4] | 1.52 ± 0.079 | 1.93 ± 0.06 | 1.7 ± 0.093 | 1.46 ± 0.061
EQDALFITRLAQGLLHL [RPN1] | 2.88 ± 0.1 | 2.69 ± 0.12 | 2.38 ± 0.14 | 2.29 ± 0.14
LSEPLIKIGIRVMKSLS [YCG1] | 1.59 ± 0.066 | 1.98 ± 0.052 | 1.74 ± 0.066 | 1.73 ± 0.06
VIFKIRDRTSGQKLLAI [SRB4] | – | 3.17 ± 0.2 | 3.5 ± 0.11 | 3.33 ± 0.16
FPIALQWTGGRGGGHHS [FAS1] | 2.52 ± 0.18 | 1.87 ± 0.23 | – | –
GKIQENIPFWKHVGFEL [SRP72] | 2.65 ± 0.053 | 2.59 ± 0.055 | 2.37 ± 0.072 | 2.57 ± 0.035
DYNDVEVNSKKKNKRAL [BRR2] | 3.07 ± 0.098 | 2.95 ± 0.07 | 2.78 ± 0.12 | 3.02 ± 0.061

Sequence | protein stability index (doa10∆) | protein stability index (pdr5∆) | protein stability index (san1∆) | protein stability index (ubr1∆)
ASRNVWSFYNGNVLIND [SNU114] | 2.87 ± 0.12 | 3.1 ± 0.082 | 3.5 ± 0.053 | 2.99 ± 0.063
NSSSSTPNTNSNSTPNA [SWI1] | 2.96 ± 0.087 | 2.98 ± 0.09 | 3.12 ± 0.069 | 3.21 ± 0.059
KGRAYKRLLYTRRFVNV [RPS30A] | 2.38 ± 0.058 | 2.12 ± 0.064 | 2.81 ± 0.069 | 2.76 ± 0.039
LLDDKKLMDEDSVATVI [YJR042W/NUP85] | 3.06 ± 0.15 | 2.91 ± 0.21 | 2.87 ± 0.14 | –
ATAFNKTRGPFHFRAPS [RPL16A] | 2.67 ± 0.12 | 3.07 ± 0.1 | 2.56 ± 0.094 | 2.71 ± 0.072
GSPSLTSPQYIPSPLSS [NUT1] | 2.56 ± 0.042 | 2.52 ± 0.033 | 2.65 ± 0.037 | 2.52 ± 0.028
LGNHAITIDSVVDANGC [YMR129W/POM152] | 2.42 ± 0.096 | 1.95 ± 0.08 | 2.56 ± 0.07 | 2.79 ± 0.085
RETNDDIWRVAGKFELL [SNF2] | 2.54 ± 0.067 | 2.26 ± 0.065 | 2.43 ± 0.076 | 2.8 ± 0.066
KFDIIIVDTSGRHHQEE [SRP54] | 3.01 ± 0.07 | 2.94 ± 0.046 | 2.71 ± 0.072 | 3.17 ± 0.06
MTAMRLMLKKLKNSIMS [YML031W/NDC1] | 1.6 ± 0.085 | 1.99 ± 0.087 | 2.16 ± 0.12 | 2.28 ± 0.059
FIMASVGKYDKAIELLE [SRP72] | 2.37 ± 0.12 | 2.38 ± 0.11 | 2.54 ± 0.13 | 3.1 ± 0.2
QAQLRIDDKTQNDELTM [DIS3] | 2.42 ± 0.085 | 2.6 ± 0.07 | 2.5 ± 0.073 | 2.62 ± 0.088
TYAAEIAHNISAKNRVV [RPL32] | 2.07 ± 0.043 | 2.27 ± 0.052 | 2.28 ± 0.068 | 2.13 ± 0.039
MMVNISVLISIPLDNYD [PCI8] | 1.43 ± 0.038 | 1.42 ± 0.044 | 1.72 ± 0.065 | 1.41 ± 0.037
GSLWVEFCDEPSVGVKT [RPB5] | 2.84 ± 0.054 | 2.86 ± 0.076 | 3 ± 0.093 | 2.92 ± 0.053
GKGLQSAIDVLDPLTKD [RPN2] | 2.28 ± 0.069 | 2.56 ± 0.079 | 2.44 ± 0.1 | 2.81 ± 0.069
MAREHAPSIIFMDEIDS [RPT6] | 2.14 ± 0.073 | 2.11 ± 0.077 | 2.54 ± 0.099 | 2.42 ± 0.059
VEEAHDFNMKLAINAKT [RPB2] | 3.09 ± 0.072 | 3.03 ± 0.085 | 3.08 ± 0.064 | 3.08 ± 0.05
YGKPTNQGVNELKYQRS [RPL15A] | 2.9 ± 0.16 | 3.23 ± 0.17 | 2.59 ± 0.14 | 3.03 ± 0.087
ESITKAMEFIFGNSLIC [SMC2] | 2.46 ± 0.071 | 1.55 ± 0.066 | 1.39 ± 0.092 | 1.89 ± 0.046
IQQLHSVLNPFLLRRVK [ISW2] | 2.06 ± 0.061 | 1.99 ± 0.05 | 2.2 ± 0.059 | 2.37 ± 0.041
NFKKFNERRKDLAERAS [SMC3] | 1.47 ± 0.061 | 1.97 ± 0.073 | 1.57 ± 0.11 | 2.05 ± 0.097
QLLQRLNDMNTEISGLK [SMC3] | 3.28 ± 0.081 | 3.38 ± 0.1 | 3.22 ± 0.06 | 3.3 ± 0.058
TPEMNVTNNVEEGEFII [TAF14] | – | 2.43 ± 0.26 | – | 3.62 ± 0.22
